B1: REST corepressor 3, residues 87 to 134; numbered along this chain, Q9P2K3 (parent)
chain: DEWTVEDKVLFEQAFSFHGKSFHRIQQMLPDKTIASLVKYYYSWKKTR

Variants of: B1
Assay: abundance fitness (aPCA) (normalised: wild type 0, dead -1); higher = more abundant; growth selection in yeast, the domain comes from the species named
Details: Homo sapiens

Abundance fitness, by site and new letter:
G19: S -0.487 | V -0.805 | D -0.487
M28: Y -0.635 | L -0.558 | A -0.382 | G -0.806 | K -0.686 | S -0.517 | Q -0.429
R48: L 0.326 | G 0.024
F15: K -0.585 | W -0.637 | L -0.658 | G -0.731 | R -0.675 | S -0.632 | P -0.881 | T -0.604
D1: E -0.195
F22: V -0.809 | G -0.739 | L -0.693 | S -0.897
K32: D -0.903 | L -0.673 | A -0.854 | P -0.742 | V -0.93 | T -0.819 | F -0.814 | S -0.972 | C -0.816 | W -0.945 | H -0.45 | I -0.978 | E -0.836 | Y -0.885
E12: G -0.708 | R -1.01 | A -0.582 | D -0.07 | S -0.822 | T -0.252 | L -0.476
T33: A -0.55 | E -0.647 | W -0.693 | K -0.109
L37: I -0.35 | T -0.542 | K -0.714 | D -0.465 | R -0.885 | E -0.628 | S -0.773 | V -0.618
K39: S -0.168 | D -0.575 | Y -0.193 | P -0.86 | V -0.741 | H 0.075 | N -0.276 | A -0.481 | G -0.11 | E -0.574 | L -0.732
E2: S -0.441 | H -0.265 | N 0.294 | Q -0.486 | V -0.859 | R -0.107
Y41: H -0.52 | K -0.398 | G -0.836 | W -0.574
F17: G -0.793 | I -0.055 | W -0.61 | C -0.853 | H -0.207 | E 0.376 | A -0.307 | L -0.206 | D 0.259 | Q -0.654
K46: H 0.242 | S -0.467 | L -0.645 | W -0.729
A35: E 0.308 | H -0.214 | G 0.045 | T 0.073 | F -0.098 | N -0.145 | W -0.439 | C -0.401 | R -0.016 | L -0.113 | Q -0.258 | Y -0.451 | M -0.203 | V -0.545
F11: E -0.769 | G -0.768 | P -0.834 | L -1.14 | V -0.812 | S -0.736 | D -0.873 | A -0.715
W3: R -1.02
A14: C -0.71 | S -0.993 | L -0.392 | Y -0.578 | F -0.453 | W -0.664 | R -0.635
D7: Q -0.156 | T -0.708 | L -0.796 | G -0.571 | S -0.611 | W -0.762
Q27: L -0.326 | M 0.449 | A 0.069 | T -0.406 | D -0.62 | R -0.244 | G -0.673 | I -0.924 | C -0.752
V9: F -0.531 | S -0.143 | M -0.592 | K -0.201 | A -0.216 | I 0.032 | E -0.302 | R -0.167 | N 0.166
V38: A -0.182 | N -0.169 | S -0.215 | Y -0.036 | R -0.116 | D -0.612 | K 0.393
D31: R -0.253 | K -0.136 | E 0.026 | Y -0.027 | N -0.337 | C -0.45 | A -0.429
K20: L -0.665 | P -0.704 | A -0.343 | T -0.399 | V -0.737
Q26: W -0.82 | G -0.757 | R -0.232 | Y -0.428
Y42: Q -0.117 | N 0.216 | P -0.821 | H -0.236 | S 0.102 | T 0.103 | A -0.234 | C -0.132 | D 0.252 | I -0.11 | V 0.02 | F -0.555 | M 0.311 | E 0.203
L10: T -0.723 | V -0.051 | M 0.745 | A -0.317 | I -0.117 | R -0.213 | S -0.763
Y40: P -0.324 | G -1.09 | K -0.346
P30: E -0.563 | K -0.177 | F -0.182 | W 0.322 | S -0.851 | H -0.498 | A -0.811 | Q -0.716 | V -0.726
K8: M -0.035 | V -0.625 | S -0.822 | P -0.763 | H -0.594 | R -0.434 | L -0.779 | Q -0.457
W44: D 0.738 | V -1 | G -0.649 | L -0.329 | F 0.414 | K -0.393 | R -0.541 | S -0.548
H18: N -0.785 | Y -0.05 | L -0.731 | T -0.39 | G -0.764 | W -0.894 | I 0.283
Q13: W -0.742 | K -0.458 | H -0.234 | M -0.101 | F -0.614 | S -0.584 | R -0.46
K45: M 0.081 | R -0.087 | S -0.143 | F -0.493 | Q -0.102 | A -0.336 | G -0.69 | N 0.014 | C -0.616 | I -0.424
T47: Q -0.979 | E -0.493 | A -0.672 | I -0.623 | S -0.463 | W -0.542 | P -0.075 | L -0.408
I25: D -0.531 | F -0.838 | L -0.358 | H -0.692 | T -0.713 | E -0.693 | R -0.975
E6: I -0.58 | L -0.614 | R -0.273 | V -0.777 | T -0.323
S36: D -0.219 | P -0.852 | L -1.04 | C -0.008 | A -0.504 | H -0.241 | Q 0.116 | V -0.761
S43: T -0.312 | W -0.327 | M -0.547 | N -0.172 | E -0.084 | A -0.128 | L -0.49 | D 0.162
R24: V -0.508 | S -0.465
I34: L -0.419 | Q -0.768 | P -1.08 | V -0.747 | R -0.374 | M -0.255 | F -0.036
H23: N -0.124 | P -0.331 | C -0.649 | A -0.164 | W -0.56
V5: P -0.393 | R -0.163 | L -0.458 | I -0.316 | K 0.208 | D -0.104 | M -0.612 | F -0.222 | A -0.137 | S -0.3 | Q -0.154 | G -0.658 | Y 0.218 | T -0.436
T4: N -0.257 | V -0.756 | P -0.83 | L -0.727 | S -0.198
L29: F -0.302 | I -0.315 | G -0.794 | Q -0.692 | A -0.832
S16: A -0.077 | L -0.257 | C -0.607 | Q -0.084 | P -0.579 | T -0.427 | V -0.393 | Y -0.391 | R -0.014 | I -0.554 | E 0.339
S21: W -0.107 | A 0.221 | Q 0.303 | N 0.349 | L -0.63 | V -0.323

— the Human Domainome abundance scans (Beltran et al. 2025)
